Test [1] concerns the target T. cruzi ribosomal P0 protein (Trypanosoma cruzi, strain  in …, UniProt P26796). The test can be described thus: cell-based or functional assay.
Test [2] concerns the target T1, P015 peptide (C-terminal region of T. cruzi P0) (Trypanosoma cruzi, UniProt P26796).
T1 construct: C-terminal region of the Trypanosoma cruzi ribosomal P0 protein (TcP0), called P015; aspartic acid in place of glycine 8 of R13; source: synthetic peptide
T1 chain: EEEDDDDDFGMGALF
The test is described as follows: SPR; competition on BIACORE 3000: TcP2β-GST immobilised by amine coupling at 0.05 pmol/mm2; scFv C5 pre-incubated 30 min with different concentrations of peptide, injected 2 min, 3 min dissociation, 30 µl/min; HBS-EP buffer pH 7.4, 150 mM NaCl; IC50 from the decrease in the initial linear kinetics. The settings on record: both partners purified.

The target of test [3] is T2, TcP2β-GST fusion protein (Trypanosoma cruzi ribosomal P2β protein) (Trypanosoma cruzi, strain , UniProt P26795).
T2 construct: Trypanosoma cruzi ribosomal P2β protein (TcP2β), recombinant; also called recombinant TcP2β protein
T2 sequence (P26795 whole entry, the tested form may be a part): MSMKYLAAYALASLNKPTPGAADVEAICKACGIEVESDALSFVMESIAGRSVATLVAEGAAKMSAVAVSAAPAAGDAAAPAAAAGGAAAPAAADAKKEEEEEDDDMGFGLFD
The description is as above. As to conditions: both partners purified.

For test [4], the target named is T3, R13 peptide (C-terminal epitope of T. cruzi P1α, P1β, P2α and P2β) (Trypanosoma cruzi).
T3 construct: the text prints only the motif 3-EdDDmGF-9; the peptide is also in PDB 3SGE; source: synthetic peptide
T3 chain: EEEDDDMGFGLFD
The test is described as above. As to conditions: both partners purified.

These results are taken from publication PMC3343115, “Selective Blockade of Trypanosomatid Protein Synthesis by a Recombinant Antibody Anti-Trypanosoma cruzi P2β Protein” (PLoS ONE, 2012).

Chain of T. cruzi ribosomal P0 protein (P26796 whole entry, looked up): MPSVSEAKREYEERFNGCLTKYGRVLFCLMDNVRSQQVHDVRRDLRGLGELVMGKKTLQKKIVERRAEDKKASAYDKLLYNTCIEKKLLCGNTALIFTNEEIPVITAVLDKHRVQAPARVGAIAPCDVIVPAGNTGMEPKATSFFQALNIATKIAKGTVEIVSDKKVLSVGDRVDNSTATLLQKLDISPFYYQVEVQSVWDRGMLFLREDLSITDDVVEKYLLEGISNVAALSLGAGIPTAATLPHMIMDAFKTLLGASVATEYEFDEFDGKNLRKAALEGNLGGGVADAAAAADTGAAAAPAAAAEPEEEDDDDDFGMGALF

B1: single chain recombinant antibody C5 (scFv C5) (scFv, V domains shown)
VH: EVQLEESGGRLVQPKGSLKLSCAASGFSFNTNAMNWVRQAPGKGLEWVARIRSKINNYSTYYADSVKDRFTISRDDSQSMLYLQMNNLKTEDTAMYYCVRGTTYWGQGTLVTVSA
VL: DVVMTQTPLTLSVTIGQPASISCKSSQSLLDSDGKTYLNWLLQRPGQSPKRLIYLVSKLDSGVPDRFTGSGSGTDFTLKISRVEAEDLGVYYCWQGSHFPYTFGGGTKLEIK
notes: VH of scFv C5, which derives from the parental monoclonal antibody 17.2; heavy chain variable domain of mAb 17.2 in PDB 3SGE (complex with R13) and 3SGD (apo); linker between the variable domains; VL of scFv C5, which derives from the parental monoclonal antibody 17.2; light chain variable domain of mAb 17.2 in PDB 3SGE (complex with R13) and 3SGD (apo); The His tag is known from detection with …
As for B1, the “inhibition of in vitro protein synthesis ([35S]-methionine incorporation) by T. cruzi ribosomes (about 130 nM), dose-response of scFv C5, IC50” value in test [1] is approximately 62.4 nM. Further, the IC50 turned out to be 22.6 ± 2.03 µM in test [2] and 2370 ± 230 nM in test [4]. Also, the binding result in test [3] is “binds”.
